Reference: US20210009703A1 (TUSK THERAPEUTICS, published 2021)

How the values were obtained:
[1] = molecular target: T1, human CD25 expressed on cells (human, UniProt P01589 22-272); assay: flow cytometry on SU-DHL-1 cells, PE anti-human IgG Fc secondary
T1 construct: Endogenous CD25 on human cells; also called CD25 on human in vitro differentiated Treg cells, SU-DHL-1 cells, SR-786 cells and PBMC
T1 sequence: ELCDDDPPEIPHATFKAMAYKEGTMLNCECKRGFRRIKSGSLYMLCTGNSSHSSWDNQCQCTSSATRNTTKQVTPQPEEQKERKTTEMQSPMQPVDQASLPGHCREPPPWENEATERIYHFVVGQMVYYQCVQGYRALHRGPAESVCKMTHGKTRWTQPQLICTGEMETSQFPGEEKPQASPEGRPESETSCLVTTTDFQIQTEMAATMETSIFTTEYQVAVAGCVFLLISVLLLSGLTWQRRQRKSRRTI
Experimental: Cells were washed again and resuspended in FACS buffer containing DAPI and acquired on the Intellicyt iQue. Live cells were gated using FSC vs SSC parameters by flow cytometry during sample acquisition. Geo Mean Intensity of stained cells were plotted on an XY chart, graphing Geo Mean Intensity against the log of the concentration, and the data fit to a non-linear regression curve from which the EC50 is calculated.

[2] = molecular target: T2, recombinant human CD25 his tagged (human, UniProt P01589 22-240); assay: ForteBio BLI, avidity format: rhCD25-His on Ni-NTA sensors, IgG in solution; IgG in solution, avidity format
T2 construct: also called rhCD25-his; rhCD25; not shown: His tag
T2 sequence: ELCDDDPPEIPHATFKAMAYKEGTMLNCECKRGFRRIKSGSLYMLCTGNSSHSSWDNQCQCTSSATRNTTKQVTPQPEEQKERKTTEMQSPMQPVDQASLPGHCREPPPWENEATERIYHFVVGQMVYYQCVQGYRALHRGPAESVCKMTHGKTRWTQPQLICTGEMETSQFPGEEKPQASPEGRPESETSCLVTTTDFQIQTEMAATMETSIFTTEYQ

EC50 (read off the curve) [1]: ~0.2 µg/mL | Kd [2]: 1.2 nM
B1: aCD25-a-672 (antibody, V domains shown)
VH: QVQLVQSGAEVKKPGSSVKVSCKASGGTFSSYAISWVRQAPGQGLEWMGGIIPIFGTANYAQKFQGRVTITADESTSTAYMELSSLRSEDTAVYYCAREYDYKEDWGQGTLVTVSS
VL: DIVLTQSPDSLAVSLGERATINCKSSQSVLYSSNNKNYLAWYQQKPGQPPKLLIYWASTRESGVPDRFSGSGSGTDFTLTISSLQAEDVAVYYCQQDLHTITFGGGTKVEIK
notes: An afucosylated IgG1 form was also made
